A short description of the data set: yeast display, Sf9 membrane polyspecificity reagent, FACS + sequencing; frameworks hold sequencing errors. The method in brief: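 Galactose-induced (36–48 hours) yeast carrying a synthetic nanobody display library were exposed to 10% biotinylated, detergent-solubilized Sf9 membrane reagent at 4 °C for 1 hour. FACS followed streptavidin microbead enrichment, using low and high (top ~1%) gates for expression (anti-HA) and reagent binding (streptavidin). Colony PCR, MiSeq 2 × 250 sequencing and CDR-length filtering followed. Labels for polyreactivity reflect the gate of origin.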
With “QVQLVESGGGLVQAGGSLRLSCAASGRIFGAYAMGWSRQAPGKERELVAAISSSGSRTYYADSVKGRFTISRDNAKNTVYLQMNSLKPEDTAVYYCAATRVSALYDYWGQGTQVTVSS”, the “polyreactivity (PSR sort gate)” value is reported as “high polyreactivity”.
Take “QVQLVESGGGLVQAGGSLRLSCAASGRIFTKYAMGWYRQAPGKERELVAAISWSGGRTYYADSVKGRFTISRDNAKNTVYLQMNSLKPEDTAVYYCAAESYKTATLGEDYWGQGTQVTVSS”: the “polyreactivity (PSR sort gate)” value is on record as “high polyreactivity”.
With “KGQLVESGGGLVQAGGSLRLTCAASGSNFRFYAMGWYRQAPGKERELVAAITYRSGITYADSVKGRFTISRDNAKNTVYVQMNSLKPEDTAVYYCAARARRYTDEYDYWGQGSQVTVSS”, the “polyreactivity (PSR sort gate)” value is listed as “low polyreactivity”.
The entry for “QVQHVESGGGLVQAGGSLRLSCAASGTTFYFYAMGWYRQAPGKERELVAAITYSGGSTYYADSVKGRFTISRDNAKNTVYLQMNSLKPEDTAVYYCAAQWRRHSTRSRYYYWGQGTQVTVSS” is “high polyreactivity”; for “QVQLVESGGGLVQAGGSLRLSCAASGSTFIGYAMGWYRQAPGKERELVAAISRSDGSTYYADSVKGRFTISRDHAKNTVYLQMNSLKPEDTAVYYCNADYYRWYDYWGQGTQVTLSS” it is “low polyreactivity”; for “QVHLVQSGGGIVQAGGSLRLSCAASGIIIRRYVMGWYRQAPGKERELVATISSSGGSTYYADSVKGRFTISRDNAKTTVYLQMNSLKPEDTAVYYCAVRYYGSGRYYYTYYSWGQGTQVTVSS” it is “high polyreactivity”.
Next, “QFQLVESGGGLDQAGGSLRLSCAASGRIFYRNCMGWYSQAPWKDRELVASIRRGGSTNYADSVKGRFTISRDNAKYTVYLQMNSVKPEDTAVYYCAARRFYPYISSGPYYYWGQGTQVTVSS”: “high polyreactivity”; “QVQLVESGGGLVQAGGSLRLSCAASGSIFTAYTMGWYRQAPGKERELVAAITERGGSTYYADSVKGRFTISRDNAKKTVYLQMNSMKPEDTAVYYCAASTLKDIYLWFRVDYWGQGTQVTVSS”: “low polyreactivity”; “QVQLVESGGGLVHAGGSLRLSCAASGGTFGYYAMGWYRQAPGQERDLVAAISGSGGSTYYADSVKGRYTISRDHAKNTFYFQMNSLKPEDTAVYYCNAYIFGEVPNNYYWGQGTQVTVSS”: “high polyreactivity”.
The entry for “QDQLVESGGGIVQAGGSLRLSCAASGIIFGFYAMGWYIKAPGKERELVASISYSGGRTYYADSVKGRFTISRDNAKNTFYLQMISLKPEDTAVYYCAARLYWIPPSPSRYDYWGQGTQVTVSS” is “high polyreactivity”; for “QVQLVESGGGLVQAGGSLRLSCAASGSIFVWNDMGWYRQAPGKERELVASIRSGVSTYYADSVKGRFTISRDNAKNTVYLQMNSLKPEDTAVYYCAKKGPIHYIYDSWGQGTQVTVSS” it is “low polyreactivity”.
Take “QVQLEESGGGLVQAGGSLRLSCAASGSTFQENAMGWYRQAPGKEREFVAAISGSGGSTYYADSVKGRFTISRDNAKNTVYLQMNSLKPEDTAVYYCAARHYFRSRRRYDYWGQGTQVTVSS”: the “polyreactivity (PSR sort gate)” value was “low polyreactivity”.
Next, “QVQLVESGGGLVQAGGSLRLSCAASGLIFSRYVMGWYRQAPGKERELVAAISRSGGSTYYADSVKGRFTISRDIAKNTVYLQMNSLKPEDTAVYYCNAGRRTGRYGYWGQGTQVTVSS”: “high polyreactivity”; “QVQLVESGGGLVQAGGSLRLSCAASGSTFYTNDMGWYRQAPGKERELVAAITSSGNTNYADSVKGRFTISRDNAKNTVFLQMNCLKPEDTAVYYYYYYQYDYWGQGTQVTVSS”: “low polyreactivity”.
Next, “QVQLVESGGGLVQAGGSLRLSCAASGGTFGSYAMGWSRPAPGKERELVAAIDYSGADTYYADSVKGRFTISRDNAKNTVYLQMNSLKPEDTAVYYCNAEFESGHDLDWYDYWGQGTQVTVSS”: “low polyreactivity”.
Next, “QVQLVESGGGLVQAGGSLRLSCAASGRTIWYYAMGWYRQAPGKESELVAAISWSGGTTFYADSVKGRFTISRDNAKYTVYLQMNSLKPEDTAVYYCAKKCIGYQEWIHSTRRYDYWGQGTQVTVSS”: “low polyreactivity”; “QVQLVESGGGLVQAGGSLRLSCAASGSIFVYNAMGWYRQAPGKEREFVAGITFIGGSTYYADSVKGRFTISRDNAKNTVYLKMNSLKPEDTAVYYCNADVAPGIFYGYDSWGQGSQVTVSS”: “low polyreactivity”.
Turning to “QVQLVESGGGLVQAGGSLRLSCAASGNTFSPYVMGWYRQAPGKERELVAAISKGGGSTYYADSVKGRFTISRDNAKNTVYLQMNSLKPEDTAVYYCAASAGPRASYYYWGQGTQVTVSS”, the “polyreactivity (PSR sort gate)” value was “high polyreactivity”.
The entry for “QVQLVESGGGLVQAGGSLRLSCAASGRIFVRNVMGWYRQAPGQERELVARITSGGSTNYADSVKGRFTISRDNAKNTVYLQINSLKPEDTAVYYCAAQGRHYHRTSTGYDYWGQGTQVTVSS” is “high polyreactivity”; for “QVQLVESGGGLVQAGGSLRLSCAASGSIFNIYAMGWYRQAPGKERELVATITGIADSTYYADSVKGRFTISRDNAKNTVYLQMNSLKPEDTAVYYCNADPSGVFFYSLEFDYWGQGTQVTVSS” it is “low polyreactivity”; for “QVQLVESGGGLVQAGGSLRLSCAASGSTFYIYAMGWYRQAPGKDRELVAAISGRGGSTYYADSVKGRFTISRDNAKNTVYLQMNSLKPEDTAVYYCATYSRQDHKYDYWGQGTQVTVSS” it is “high polyreactivity”.
Consider “QVQLEESGGGLGQAGGSLRLTCAASGSIFDTYTMGWYRQATRIEWELVAAITSGTTTTYADSVKGRFTISRDNGLNTVYLKINSLNPEDTAVYYCGARTSGSFDYWGQGPQVTVSS”, for which the “polyreactivity (PSR sort gate)” value is recorded as “low polyreactivity”.
The entry for “QVQLVESGGGLVQAGGSLRLSCAASGFTFGRYAMGWYRQAPGKVRELVAGITSGGSTYYADSVKGRFTISRDNAKKTVYLQMNSLKPEDTAVYYGAKASAYGLANDYDYWGQGTQVTVSS” is “low polyreactivity”.
The entry for “QVQLVESGGGLVQAGGSLRLSCAASGSISGYYAMGWYRQAPGKERELVASIRYTGARTYYADSVMGRFTISRDTAKNNVYLQMNSLKPEDTAVYYCAADVKRDRVWGGDYWGQGTQVTVSS” is “low polyreactivity”; for “QVQLVESGGGLVQAGGSLRLSCAATGSTYKYYAMGWYRQAPGKERELVAAITKSGGRTYYSDSVKGRLTISRDNAKNTVYLQMNSLKPEDTAVYYCATVTSHVDDEFDYWGQGTQVTVSS” it is “high polyreactivity”; for “QVQLVESGGGLVQAGGSLRLSCAASGRTFKWYAMGWYRQAPGKERELVASISWSGGGTYYADSVKGRFTISRDNAKNTVYLQMNSLKPEDTAVYECAAEYYNWGDYGYDYWGQGTQVTVSS” it is “high polyreactivity”.
Next, “QVQLVESGGGLVQAGGSLRLSCAASGRTFRRYTMGWYRQAPGKERELVAAITTSGGSTYYADSVKGRFTISRDNAKNTVYLQMNSLKPEDTAVYYCAATRRYSGDYWGQGTQVTVSS”: “high polyreactivity”; “QVQLVESGGGLVQAGGSLRLSCAASGSIFDYYGMGWYRQAPGKERELVARITKRGGSTYYADSVMGRFTISRDNAKNTVYFQMNSLKPEDTAVYYCAAVVAYLFSGRGYRYNYWGQGTQVTLSS”: “high polyreactivity”; “QVQLVESGGGLVQAGGSLRLSCAASGSIFFVNAMGWYRQAPGKERELVAGITGGGSTYYADSVKGRFTISRDNAKNTVYLQMNSLKPEDTAVYYCNKKAYRKTGMDYWGQGTQVTVSS”: “low polyreactivity”.
Regarding “QVQLVESGGGLVQAGGSLRLSCASSGRIFGLYAMGWNRQAPGKERELVAAISRGGGSTYYADSVKGRFTISRDNAKNTVYLQMNSLKPEDTAVYYCATGLGYFSRLDYWGQGTQVTVSS”, the “polyreactivity (PSR sort gate)” value is on record as “low polyreactivity”.
The entry for “QVQLVESGGCLVQAGGSLRLSCAASGRIVYPYAMGWYRQAPGKERELVAAISSSGGSTYYADSVKGRFTISRDNAKNTVYLQMNSLKPDDTAVYYCAAQEFQKRLGGSWCRYDYWGQGTQVNVSS” is “high polyreactivity”.
Next, “QVQLVESGGGLVQAGGSLRLSCAASGRTMDFNVMGWYRQAPGKERELVAAITWSGGSTYYSDSVKGRFTISRDNAKNTVYLQMNSLKPVDTAVYYCAKDLWYWARRYDYWGQGTQVTVSS”: “high polyreactivity”; “KVQLVESGGGLVQSGGRLRLSCAASGSTFQIYTMGWYRQAPGKERELVAAITNGGGSTYYADSVKGRFTISRDNAKNTVYFQMISLKPEDTAVYYCAAEQSYPLIILYDYWGQGTQVTVSS”: “low polyreactivity”.
“QDQLVESGGGLVQAGGSLRLSCAASGYIFGIYAMGWYRQAPGKERELVAAISSDSTYYADSVKGRFTISRDNAKNTVYLQMNRQKPEDTAVYYCAAYWFNQDYEFEYWGHGTQVTVSS”: the “polyreactivity (PSR sort gate)” value is given as “high polyreactivity”.
As to “QVQLVESGGGLVQAGGSLRLSCAASGSTFLYYAMGWYRQATGKERELVAAIDSGGSTYYADSVKGRFTISRDNAKNTVYLQMNSLKPEDTAVYYCNADFADHWPPNGPGAHDYWGQGTQVTVSS”, the “polyreactivity (PSR sort gate)” value was “low polyreactivity”.
Next, “QVHHVESAGGLVQAGASLRLSSAASGSTIYRYAMGWYRQTPGKERELVARIDWSDGSTNYADSVKGRFTISRDNAKNTVYLQMNSLKPEDTGVYYCASDTYYDTYDGEYEYWGQGTQVTVSS”: “low polyreactivity”; “QVQLVESGGGLVQAGGSLRLSCAASGITFGRYAMGWYRQAPGKERELVAAISRGSGSTYYADSVKGRFTISRDNAKNTVYLQMNSLKPEDTAVYYCAKVVRVGMGYWGQGTQVTVSS”: “high polyreactivity”.
Next, “QVQLVESVGGLVQAGGSLRLSCAASGSTFGYYAMGWYRQAPGKERELVATITWSGGSTNYGDSVKGRFTISRDNEKNTVYLQMKSLKPEDTAVYYCAADLKYWYFGLAFIEVDYWGQGTQVTVSS”: “low polyreactivity”; “QVQLVESGGVLVQAGGSLRLSCAASGGTFGVYTMGWYRQSPGKERDLVAAISWSGGSTYYADSVKGRFRISRDNAKNTVYLQINSLKPEDTAVYYCAARLKYGRIGVDHWGQGTQVTVSS”: “high polyreactivity”; “QVQLVESGGGLVQAGGSLRLSCAASRFIFYYYALGWYRQAPGKERELVAAITWSGGSTYYADSVKGRFTISRDNAKNTVYLQMNSLKPEETAEYYCAVYSTEYKLLWGGISYDYWGQGTQVTVSS”: “low polyreactivity”.
With “QVQLVESGGGLVQAGGSLRLSCAASGRTFKKYAMGWYSQAPGKERELVAAITVSGGSTYYADSVKGRFTVSRDNAKNTVYLQMNSLKPEDTAVYYCAAGSYSRYLFSLYFDFDYWGQGNQVTVSS”, the “polyreactivity (PSR sort gate)” value was “low polyreactivity”.

The values above are taken from the nanobody polyreactivity screen of Harvey et al. (2022).
